How the values were obtained:
[1] = target: CCR4a, full length (human) (human) (UniProt Q9ULM6); assay: co-purification (metal affinity, SEC, anion exchange); CCR4a and CAF1 co-expressed in E. coli; nickel IMAC, tags cleaved by TEV, Superdex 200 in 10 mM HEPES/NaOH pH 7.5, 300 mM NaCl, 2 mM DTT, then Source 15Q
[2] = target: NOT1:NOT2:NOT3:CAF40 subcomplex (full-length subunits) (human) (UniProt A5YKK6); assay: SEC-MALS; reconstituted CCR4-NOT FULL, 40 ul at 0.9 mg/ml, Superose 6 5/150 in 10 mM HEPES/NaOH pH 7.5, 200 mM NaCl; SDS-PAGE with Coomassie staining of the complex
Chain of NOT1:NOT2:NOT3:CAF40 subcomplex (full-length subunits) (human) (A5YKK6 whole entry, chain 1 of 4): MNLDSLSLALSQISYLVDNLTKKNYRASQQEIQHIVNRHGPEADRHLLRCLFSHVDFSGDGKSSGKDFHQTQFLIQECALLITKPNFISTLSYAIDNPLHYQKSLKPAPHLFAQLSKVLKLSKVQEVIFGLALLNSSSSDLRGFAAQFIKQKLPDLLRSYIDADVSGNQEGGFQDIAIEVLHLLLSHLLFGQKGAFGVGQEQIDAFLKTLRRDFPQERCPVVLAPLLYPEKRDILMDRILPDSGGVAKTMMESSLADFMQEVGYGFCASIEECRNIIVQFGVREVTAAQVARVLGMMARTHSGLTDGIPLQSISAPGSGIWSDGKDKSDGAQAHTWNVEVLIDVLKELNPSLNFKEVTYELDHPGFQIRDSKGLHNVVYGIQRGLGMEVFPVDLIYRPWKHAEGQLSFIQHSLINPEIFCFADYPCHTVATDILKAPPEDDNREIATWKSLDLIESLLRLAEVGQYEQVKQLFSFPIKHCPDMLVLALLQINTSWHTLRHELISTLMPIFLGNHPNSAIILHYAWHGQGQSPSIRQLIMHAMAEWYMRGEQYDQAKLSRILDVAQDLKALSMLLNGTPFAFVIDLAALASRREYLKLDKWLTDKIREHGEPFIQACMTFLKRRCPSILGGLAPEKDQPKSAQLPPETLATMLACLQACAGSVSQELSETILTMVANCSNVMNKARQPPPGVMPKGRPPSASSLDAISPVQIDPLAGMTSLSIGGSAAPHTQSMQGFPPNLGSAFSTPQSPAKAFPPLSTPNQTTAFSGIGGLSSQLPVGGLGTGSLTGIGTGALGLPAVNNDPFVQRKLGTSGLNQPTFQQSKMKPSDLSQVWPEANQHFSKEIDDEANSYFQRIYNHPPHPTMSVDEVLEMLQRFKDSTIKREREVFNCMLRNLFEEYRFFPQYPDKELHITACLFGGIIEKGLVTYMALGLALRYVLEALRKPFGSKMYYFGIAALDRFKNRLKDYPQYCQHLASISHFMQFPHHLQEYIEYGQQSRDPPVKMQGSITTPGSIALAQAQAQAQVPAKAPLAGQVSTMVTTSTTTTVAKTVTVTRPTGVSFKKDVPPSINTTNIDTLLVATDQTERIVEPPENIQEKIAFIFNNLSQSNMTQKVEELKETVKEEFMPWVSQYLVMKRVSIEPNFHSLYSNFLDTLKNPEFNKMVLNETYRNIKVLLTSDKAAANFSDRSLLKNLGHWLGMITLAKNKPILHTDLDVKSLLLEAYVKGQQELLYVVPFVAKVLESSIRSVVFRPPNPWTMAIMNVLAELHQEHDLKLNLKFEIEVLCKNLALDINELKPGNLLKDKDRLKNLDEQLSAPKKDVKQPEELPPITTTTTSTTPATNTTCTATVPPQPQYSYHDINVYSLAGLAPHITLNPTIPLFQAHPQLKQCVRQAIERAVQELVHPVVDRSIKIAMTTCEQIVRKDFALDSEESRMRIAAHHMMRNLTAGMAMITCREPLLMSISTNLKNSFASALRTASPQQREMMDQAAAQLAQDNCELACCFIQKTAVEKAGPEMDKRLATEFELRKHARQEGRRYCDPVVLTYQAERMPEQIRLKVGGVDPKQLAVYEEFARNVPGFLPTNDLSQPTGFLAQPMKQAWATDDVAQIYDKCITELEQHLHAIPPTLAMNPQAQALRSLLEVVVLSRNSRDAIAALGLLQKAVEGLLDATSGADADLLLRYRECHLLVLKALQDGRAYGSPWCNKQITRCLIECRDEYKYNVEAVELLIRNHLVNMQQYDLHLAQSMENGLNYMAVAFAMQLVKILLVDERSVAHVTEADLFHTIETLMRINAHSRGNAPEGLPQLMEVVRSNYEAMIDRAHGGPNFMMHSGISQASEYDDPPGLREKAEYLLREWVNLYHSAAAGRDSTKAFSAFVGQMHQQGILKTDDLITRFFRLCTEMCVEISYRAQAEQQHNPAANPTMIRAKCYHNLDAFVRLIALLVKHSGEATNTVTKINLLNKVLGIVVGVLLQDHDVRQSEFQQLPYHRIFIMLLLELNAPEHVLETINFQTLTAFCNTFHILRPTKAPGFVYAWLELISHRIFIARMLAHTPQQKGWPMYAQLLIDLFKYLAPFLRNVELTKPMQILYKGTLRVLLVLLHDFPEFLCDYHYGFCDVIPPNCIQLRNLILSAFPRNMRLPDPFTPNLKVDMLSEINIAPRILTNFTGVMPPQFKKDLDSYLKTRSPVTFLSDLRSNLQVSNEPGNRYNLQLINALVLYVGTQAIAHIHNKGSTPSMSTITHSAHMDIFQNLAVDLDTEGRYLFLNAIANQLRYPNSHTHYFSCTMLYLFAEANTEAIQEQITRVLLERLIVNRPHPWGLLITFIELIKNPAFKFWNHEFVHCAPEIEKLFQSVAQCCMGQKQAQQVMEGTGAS
Chain of NOT1:NOT2:NOT3:CAF40 subcomplex (full-length subunits) (human) (Q9NZN8 whole entry, chain 2 of 4, further chain): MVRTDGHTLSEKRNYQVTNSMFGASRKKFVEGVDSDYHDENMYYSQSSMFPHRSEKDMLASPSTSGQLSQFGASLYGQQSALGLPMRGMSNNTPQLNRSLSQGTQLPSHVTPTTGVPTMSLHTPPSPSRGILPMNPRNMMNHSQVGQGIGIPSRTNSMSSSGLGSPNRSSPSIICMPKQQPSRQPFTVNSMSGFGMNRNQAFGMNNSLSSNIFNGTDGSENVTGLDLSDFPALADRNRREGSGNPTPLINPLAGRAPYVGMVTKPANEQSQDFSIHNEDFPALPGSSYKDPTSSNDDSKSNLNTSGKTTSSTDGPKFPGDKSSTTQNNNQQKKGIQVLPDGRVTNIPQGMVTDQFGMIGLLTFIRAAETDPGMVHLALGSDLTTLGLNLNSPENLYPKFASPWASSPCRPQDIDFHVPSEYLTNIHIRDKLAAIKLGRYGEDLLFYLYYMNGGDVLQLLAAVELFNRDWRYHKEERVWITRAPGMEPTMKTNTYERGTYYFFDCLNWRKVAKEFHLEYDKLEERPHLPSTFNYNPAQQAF
Chain of NOT1:NOT2:NOT3:CAF40 subcomplex (full-length subunits) (human) (O75175 whole entry, chain 3 of 4, further chain): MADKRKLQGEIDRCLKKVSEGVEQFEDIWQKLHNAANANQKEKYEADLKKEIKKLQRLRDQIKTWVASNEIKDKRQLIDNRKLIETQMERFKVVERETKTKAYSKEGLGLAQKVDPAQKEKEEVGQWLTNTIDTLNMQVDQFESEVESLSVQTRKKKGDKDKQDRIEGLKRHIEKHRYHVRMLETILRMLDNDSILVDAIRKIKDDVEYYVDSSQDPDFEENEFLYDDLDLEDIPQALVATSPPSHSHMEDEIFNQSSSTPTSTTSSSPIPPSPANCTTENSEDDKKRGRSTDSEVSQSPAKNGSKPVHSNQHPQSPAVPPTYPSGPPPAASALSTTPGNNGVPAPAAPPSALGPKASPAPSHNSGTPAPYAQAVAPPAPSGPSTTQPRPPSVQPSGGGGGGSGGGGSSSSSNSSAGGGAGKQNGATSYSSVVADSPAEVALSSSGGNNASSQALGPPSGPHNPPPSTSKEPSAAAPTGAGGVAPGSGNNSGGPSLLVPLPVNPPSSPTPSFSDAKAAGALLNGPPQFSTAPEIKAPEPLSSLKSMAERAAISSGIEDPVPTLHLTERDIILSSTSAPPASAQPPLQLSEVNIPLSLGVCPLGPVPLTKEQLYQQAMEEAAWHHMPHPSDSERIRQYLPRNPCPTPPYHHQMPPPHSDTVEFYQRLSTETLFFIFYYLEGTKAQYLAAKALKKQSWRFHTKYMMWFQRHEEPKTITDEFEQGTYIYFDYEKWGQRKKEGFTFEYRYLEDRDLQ
Chain of NOT1:NOT2:NOT3:CAF40 subcomplex (full-length subunits) (human) (Q92600 whole entry, chain 4 of 4, further chain): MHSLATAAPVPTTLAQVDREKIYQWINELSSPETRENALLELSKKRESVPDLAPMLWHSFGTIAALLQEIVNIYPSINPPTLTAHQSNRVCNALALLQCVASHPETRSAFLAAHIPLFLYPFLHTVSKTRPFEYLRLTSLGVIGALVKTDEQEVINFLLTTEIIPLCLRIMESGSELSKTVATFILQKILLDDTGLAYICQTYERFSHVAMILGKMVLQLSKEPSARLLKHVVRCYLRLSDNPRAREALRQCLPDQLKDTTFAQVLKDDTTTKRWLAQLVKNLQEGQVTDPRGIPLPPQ

Chain of CCR4a, full length (human) (human) (Q9ULM6 whole entry): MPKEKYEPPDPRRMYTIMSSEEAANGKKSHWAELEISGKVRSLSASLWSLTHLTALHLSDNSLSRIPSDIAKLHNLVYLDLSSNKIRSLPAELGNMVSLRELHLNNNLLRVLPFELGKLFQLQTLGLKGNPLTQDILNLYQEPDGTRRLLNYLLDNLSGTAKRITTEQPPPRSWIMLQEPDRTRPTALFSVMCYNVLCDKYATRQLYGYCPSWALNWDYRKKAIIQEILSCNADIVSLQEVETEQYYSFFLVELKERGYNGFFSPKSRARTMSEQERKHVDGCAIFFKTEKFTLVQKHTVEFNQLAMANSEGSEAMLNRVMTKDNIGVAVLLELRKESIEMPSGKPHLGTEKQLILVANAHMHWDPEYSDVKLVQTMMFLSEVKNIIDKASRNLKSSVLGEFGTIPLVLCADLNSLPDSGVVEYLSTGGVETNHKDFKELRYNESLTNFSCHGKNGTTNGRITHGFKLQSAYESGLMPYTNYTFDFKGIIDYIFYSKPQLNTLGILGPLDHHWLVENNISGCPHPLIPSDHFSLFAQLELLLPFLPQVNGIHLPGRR
Chain of CAF1, full length (human) (Q9UIV1 whole entry): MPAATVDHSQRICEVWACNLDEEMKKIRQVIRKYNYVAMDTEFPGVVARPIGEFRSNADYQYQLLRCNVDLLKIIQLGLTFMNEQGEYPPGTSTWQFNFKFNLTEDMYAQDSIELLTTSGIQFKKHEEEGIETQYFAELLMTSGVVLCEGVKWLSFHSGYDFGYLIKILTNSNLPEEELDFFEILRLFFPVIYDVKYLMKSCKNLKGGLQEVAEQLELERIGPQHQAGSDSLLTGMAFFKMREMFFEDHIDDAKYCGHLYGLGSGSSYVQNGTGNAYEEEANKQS

Row | stoichiometry N [1] | stoichiometry N [2] | Substance
1 | 1 | – | CAF1, full length (human) (from UniProt Q9UIV1 1-285) (enzyme)
2 | – | 1 | CCR4a:CAF1 exonuclease heterodimer (wild type) (from UniProt Q9ULM6 1-557; Q9UIV1 1-285) (complex)
